Measurements published in article doi:10.1101/2020.02.24.962464, “Kinetics characterization of ASXL1/2-mediated allosteric regulation of BAP1 deubiquitinase” (bioRxiv, 2020).
Several values for one entry are separate records, joined by “and”; a condition that tells them apart may be missing. Equal values may be shown once.

T1: full-length His-BAP1 (Bv-His-BAP1-FL-WT) (human, UniProt Q92560 1-729)
T1 sequence (looked up): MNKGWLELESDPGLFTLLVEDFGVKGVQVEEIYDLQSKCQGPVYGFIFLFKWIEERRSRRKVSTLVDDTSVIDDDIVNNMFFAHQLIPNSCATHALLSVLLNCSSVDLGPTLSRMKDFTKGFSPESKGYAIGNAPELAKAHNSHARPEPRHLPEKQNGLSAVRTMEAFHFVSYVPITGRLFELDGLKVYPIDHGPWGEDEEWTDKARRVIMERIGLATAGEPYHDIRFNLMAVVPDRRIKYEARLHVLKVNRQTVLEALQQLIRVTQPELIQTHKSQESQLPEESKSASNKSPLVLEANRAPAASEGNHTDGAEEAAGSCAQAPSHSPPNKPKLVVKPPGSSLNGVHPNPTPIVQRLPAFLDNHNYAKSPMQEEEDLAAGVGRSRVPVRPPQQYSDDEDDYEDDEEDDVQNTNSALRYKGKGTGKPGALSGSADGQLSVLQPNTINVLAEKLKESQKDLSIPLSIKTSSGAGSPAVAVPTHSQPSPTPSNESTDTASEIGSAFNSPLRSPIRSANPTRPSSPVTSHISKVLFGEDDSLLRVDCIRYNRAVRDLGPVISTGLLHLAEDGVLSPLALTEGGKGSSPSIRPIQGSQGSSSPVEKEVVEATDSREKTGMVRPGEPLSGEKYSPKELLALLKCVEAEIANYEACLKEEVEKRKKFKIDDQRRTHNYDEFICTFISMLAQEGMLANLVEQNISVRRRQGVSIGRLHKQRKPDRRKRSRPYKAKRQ

T2: full-length His-BAP1 (Bv-His-BAP1-FL-WT) (human, UniProt Q92560 1-729)
T2 chain: T1 sequence (looked up)

T3: GST-BAP1-ULD (human, UniProt Q92560 601-729)
T3 construct: BAP1, human, ULD domain; also called GST-ULD; pGEX-4T-1-BAP1-ULD; source: E. coli BL21 (DE3), purified (GST resin, native conditions)
T3 sequence (looked up): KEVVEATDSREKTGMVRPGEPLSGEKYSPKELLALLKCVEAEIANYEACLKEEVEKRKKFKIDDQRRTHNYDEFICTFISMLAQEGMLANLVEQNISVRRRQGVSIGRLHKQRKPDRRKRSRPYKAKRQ

B1: GST-BAP1-UCH-WT (1-250 aa) (domain or fragment, human, UniProt Q92560 1-250, looked up)
chain: MNKGWLELESDPGLFTLLVEDFGVKGVQVEEIYDLQSKCQGPVYGFIFLFKWIEERRSRRKVSTLVDDTSVIDDDIVNNMFFAHQLIPNSCATHALLSVLLNCSSVDLGPTLSRMKDFTKGFSPESKGYAIGNAPELAKAHNSHARPEPRHLPEKQNGLSAVRTMEAFHFVSYVPITGRLFELDGLKVYPIDHGPWGEDEEWTDKARRVIMERIGLATAGEPYHDIRFNLMAVVPDRRIKYEARLHVLKV
notes: BAP1, human, ubiquitin C-terminal hydrolase (UCH) domain, residues 1-250 (pGEX-2TK-BAP1-UCH-WT); also called GST-UCH; pGEX-2TK-BAP1-UCH-WT; source: E. coli BL21 (DE3), purified (GST resin, native conditions)
B2: His-ULD/AB protein complex (pETDuet-1-His-BAP1-ULD+ASXL2-AB) (complex, human)
chain 1: T3 sequence (looked up)
chain 2: MKRTKCADIDVETPDSILVNTNLRALINKHTFSVLPGDCQQRLLLLLPEVDRQVGPDGLMKLNGSALNNEFFTSAAQGWKERLSEGEFTPEMQVRIRQEIEKEKKVEPWKEQFFESYYGQS
notes: BAP1, human, ULD domain; ASXL2, human, AB box; Complex formed beforehand by co-expression; used as one analyte in pull-down, SPR and Ub-AMC assays; also called ULD/AB complex; Duet-His-ULD/AB; source: E. coli Rosetta 2 (DE3) pLysS, co-expressed from pETDuet-1, purified (cobalt beads, Talon, native conditions)
B3: His-BAP1-ULD (601-729 aa) (domain or fragment, human, UniProt Q92560 601-729, looked up)
chain: T3 sequence (looked up)
notes: BAP1, human, UCH37-like domain (ULD), residues 601-729 (pQE30-BAP1-ULD); also called His-ULD; ULD domain
B4: His-ASXL2-AB (261-381 aa) (domain or fragment, human, UniProt Q76L83 261-381, looked up)
chain: B2 chain 2
notes: ASXL2, human, AB box, residues 261-381 (pQE30-ASXL2-AB); also called His-AB; AB box

Experiments:
[1] = biological target: B2; assay: SPR; Biacore T200; full-length His-BAP1, GST-UCH or GST alone amine-coupled to a CM5 chip (~3000 RU), His-ULD/AB complex injected; 25 mM HEPES pH 7.4, 250 mM NaCl, 5 mM DTT, 0.05% Tween20; steady-state and kinetic one-site fits; details: both partners purified
[2] = biological target: T1, full-length His-BAP1 (Bv-His-BAP1-FL-WT); assay: cell-based or functional assay
[3] = biological target: T2, full-length His-BAP1 (Bv-His-BAP1-FL-WT); assay: SPR; steady-state equilibrium
[4] = biological target: T1, full-length His-BAP1 (Bv-His-BAP1-FL-WT); assay: SPR; Biacore T200; full-length His-BAP1, GST-UCH or GST alone amine-coupled to a CM5 chip (~3000 RU), His-ULD/AB complex injected; 25 mM HEPES pH 7.4, 250 mM NaCl, 5 mM DTT, 0.05% Tween20; steady-state and kinetic one-site fits; details: both partners purified
[5] = biological target: B4; assay: ITC; Microcal ITC 200; His-AB 77 µM in the cell, His-ULD 574 µM titrated; 50 mM potassium phosphate pH 7.5, 200 mM potassium chloride, 1 mM TCEP; duplicate; details: both partners purified
[6] = biological target: B3; assay: as above; details: both partners purified
[7] = biological target: T3, GST-BAP1-ULD; assay: SPR; Biacore T200; GST-ULD captured by anti-GST antibody on a CM5 chip (400 RU), His-AB injected; 25 mM HEPES pH 7.4, 150 mM NaCl, 5 mM DTT, 0.05% Tween20; steady-state and kinetic one-site fits; details: both partners purified

Binder: B1
koff [1]: 0.044 s⁻¹
kon [1]: 19000 M⁻¹ s⁻¹

Binder: B2
fold increase of BAP1 specific activity (100 nM Ub-AMC) with increasing concentrations of His-ULD/AB [2]: 4.5 fold
Kd [3]: 740 nM
Kd [4]: 850 nM and 1910 nM
koff [4]: 0.033 s⁻¹
kon [4]: 39000 M⁻¹ s⁻¹

Binder: B3
dH [5]: -9.87 kcal/mol
stoichiometry N [5]: 1

Binder: B4
fold increase of the maximal velocity of BAP1 cleavage of Ub-AMC with increasing concentrations of ASXL2-AB [2]: 2.5 fold
Kd [6]: ~4260 nM
Kd [7]: 134 nM and 67 nM
koff [7]: 0.0024 s⁻¹
kon [7]: 38000 M⁻¹ s⁻¹
